{"source": "patent US20260001953A1", "about": "(TWIST BIOSCIENCE, published 2026)", "binders": {"B1": {"name": "CD117-8 (antibody, human IgG1, kappa, V domains shown)", "VH": "EVQLLESGGGLVQPGGSLRLSCAASGFTLTSYAMSWVRQAPGKGLEWVSTISGSGGYTYYADSVKGRFTISRDNSKNTLYLQMNSLRAEDTAVYYCARDSGYDRGLDYWGQGTLVTVSS", "VL": "DIQMTQSPSSLSASVGDRVTITCRASQSVRTYLNWYQQKPGKAPKLLIYDASTLQSGVPSRFSGSGSGTDFTLTISSLQPEDFATYYCQQSYNTPLAFGGGTKVEIKR", "notes": "detected with anti-human IgG in FACS"}, "B2": {"name": "CD117-4 (antibody, human IgG1, kappa, V domains shown)", "VH": "EVQLLESGGGLVQPGGSLRLSCAASGFTFSRSAMSWVRQAPGKGLEWVSAISAGGGNTYYADSVKGRFTISRDNSKNTLYLQMNSLRAEDTAVYYCAREQDLWSGTFDYWGQGTLVTVSS", "VL": "B1 VL with S26R, V29I, R30S, T31S, T53S, Q55R, N93K, L96W, A97T", "notes": "as for B1"}, "B3": {"name": "CD117-3 (antibody, human IgG1, kappa, V domains shown)", "VH": "EVQLLESGGGLVQPGGSLRLSCAASGFSFSSYAMSWVRQAPGKGLEWVSAISGTGGNTYYADSVKGRFTISRDNSKNTLYLQMNSLRAEDTAVYYCARRNDFWSDAFDIWGQGTLVTVSS", "VL": "B1 VL with S28N, V29I, R30Y, T53S, Q55H, Y92S, N93S, L96Y, A97T", "notes": "as for B1"}, "B4": {"name": "CD117-15 (antibody, human IgG1, kappa, V domains shown)", "VH": "EVQLLESGGGLVQPGGSLRLSCAASGFTFSDYPMSWVRQAPGKGLEWVSAIGGSGGDTYYADSVKGRFTISRDNSKNTLYLQMNSLRAEDTAVYYCARGAYDGEGFDYWGQGTLVTVSS", "VL": "B1 VL with A25T, V29I, R30G, T31S, D50S, T53R, Q55E, S91T, L96W, A97T", "notes": "as for B1"}, "B5": {"name": "SIGLEC-8-4 (antibody, human IgG1, kappa, V domains shown)", "VH": "EVQLLESGGGLVQPGGSLRLSCAASGFSFSSDAMSWVRQAPGKGLEWVSGISGGGGSAYYADSVKGRFTISRDNSKNTLYLQMNSLRAEDTAVYYCAREGASNYAAFDIWGQGTLVTVSS", "VL": "DIQMTQSPSSLSASVEDRVTITCRAGQSITPYLNWYQQKPGKAPKLLIYATSSLHSGVPSRFSGSGSGTDFTLTISSLQPEDFATYYCQQSHSSPLTFGGGTKVEIKR", "notes": "tested as expressed and purified mAb"}, "B6": {"name": "SIGLEC-8-59 (antibody, human IgG1, kappa, V domains shown)", "VH": "EVQLLESGGGLVQPGGSLRLSCAASGFTFTSYAVSWVRQAPGKGLEWVSSISGSGGSAYYADSVKGRFTISRDNSKNTLYLQMNSLRAEDTAVYYCARDTVGYGMDVWGQGTLVTVSS", "VL": "DIQMTQSPSSLSASVGDRVTITCRASQTISGYLSWYQQKPGKAPKLLIYSASRLHSGVPSRFSGSGSGTDFTLTISSLQPEDFATYYCQQGYSTPLTFGGGTKVEIKR", "notes": "as for B5"}, "B7": {"name": "SIGLEC-8-30 (antibody, human IgG1, kappa, V domains shown)", "VH": "EVQLLESGGGLVQPGGSLRLSCAASGFTFSHYALSWVRQAPGKGLEWVSIISGSGDTTYYADSVKGRFTISRDNSKNTLYLQMNSLRAEDTAVYYCAKATYFYDSSGYRRATYFDYWGQGTLVTVSS", "VL": "DIQMTQSPSSLSASVGDRVTITCRASQGISRHLNWYQQKPGKAPKLLIYAESTLQSGVPSRFSGSGSGTDFTLTISSLQPEDFATYYCQQTYTLPYTFGGGTKVEIKR", "notes": "as for B5"}, "B8": {"name": "SIGLEC-8-20 (antibody, human IgG1, kappa, V domains shown)", "VH": "EVQLLESGGGLVQPGGSLRLSCAASGFTFSSFDMTWVRQAPGKGLEWVSSISGGGGSTYYADSVKGRFTISRDNSKNTLYLQMNSLRAEDTAVYYCAREDGSGSYSMDVWGQGTLVTVSS", "VL": "DIQMTQSPSSLSASVGDRVTITCRASQSIDNYLHWYQQKPGKAPKLLIYAASNLEGGVPSRFSGSGSGTDFTLTISSLQPEDFATYYCQQSYKTPVTFGGGTKVEIKR", "notes": "as for B5"}, "B9": {"name": "SIGLEC-8-52 (antibody, human IgG1, kappa, V domains shown)", "VH": "EVQLLESGGGLVQPGGSLRLSCAASGFTFRSYVMSWVRQAPGKGLEWVSSISLSGGSTYYADSVKGRFTISRDNSKNTLYLQMNSLRAEDTAVYYCAREESGKYLSLDHWGQGTLVTVSS", "VL": "B8 VL with I29V, D30S, Y32F, H34N, S91T, K93S, V96I", "notes": "as for B5"}, "B10": {"name": "SIGLEC-8-61 (antibody, human IgG1, kappa, V domains shown)", "VH": "EVQLLESGGGLVQPGGSLRLSCAASGFTFSSSAMTWVRQAPGKGLEWVTAISESGGSTYYADSVKGRFTISRDNSKNTLYLQMNSLRAEDTAVYYCAREGGDYYYGIDVWGQGTLVTVSS", "VL": "B1 VL with S26G, V29I, R30N, T31R, D50G, T53N, Y92F, N93T, A97T", "notes": "tested as expressed and purified mAb; also called SIGLEC-61"}, "B11": {"name": "SIGLEC-8-55 (antibody, human IgG1, kappa, V domains shown)", "VH": "EVQLLESGGGLVQPGGSLRLSCAASGFTFDDYAMSWVRQAPGKGLEWVSYISGSGGSTYYADSVKGRFTISRDNSKNTLYLQMNSLRAEDTAVYYCAKYRRYDSGLGGFDYWGQGTLVTVSS", "VL": "B1 VL with Q27R, V29I, R30D, S56G, N93V, L96P, A97T", "notes": "tested as expressed and purified mAb; also called SIGLEC-55"}, "B12": {"name": "SIGLEC-8-31 (antibody, human IgG1, kappa, V domains shown)", "VH": "B9 VH with R30S, S31T, Y32D, V33A, S50T, I51V, L53G, G56A, E100D, H109Y", "VL": "B8 VL with D30T, H34N, A51S, N53T, G56S, K93I, V96L", "notes": "as for B5"}, "B13": {"name": "SIGLEC-8-53 (antibody, human IgG1, kappa, V domains shown)", "VH": "B9 VH with R30S, Y32S, V33A, S35A, S50E, L53D", "VL": "B8 VL with S28T, D30I, H34N, A50G, L54V, E55Q, G56S, K93V, V96P", "notes": "as for B5"}, "B14": {"name": "SIGLEC-8-45 (antibody, human IgG1, kappa, V domains shown)", "VH": "B5 VH with S28T, D32G, G50T, G54S, G56A, A58T, A101S, N103S, Y104W, A105N", "VL": "B8 VL with S28T, D30A, H34N, G56D, K93N, V96I", "notes": "as for B5"}, "B15": {"name": "SIGLEC-8-60 (antibody, human IgG1, kappa, V domains shown)", "VH": "EVQLLESGGGLVQPGGSLRLSCAASGFTLSNYAMTWVRQAPGKGLEWVSTVSGSGASTYYADSVKGRFTISRDNSKNTLYLQMNSLRAEDTAVYYCARENSGKYLSLDYWGQGTLVTVSS", "VL": "B7 VL with G28N, S30A, R31S, H32Y, E51T, T53D, T93N, L94I, Y96L", "notes": "as for B5"}}, "note": "Residue numbers refer to the chain shown, from its start.", "data": [{"molecular_target": "T1, CD117 transiently expressed on Expi293 cells (UniProt P10721 26-976, limits assumed)", "T1 construct": "whole, on cells; Two cassettes are described (P2A mVenus and direct mVenus fusion); also called CD117 transient cells; the transient cell line", "T1 sequence (P10721 26-976 limits assumed)": "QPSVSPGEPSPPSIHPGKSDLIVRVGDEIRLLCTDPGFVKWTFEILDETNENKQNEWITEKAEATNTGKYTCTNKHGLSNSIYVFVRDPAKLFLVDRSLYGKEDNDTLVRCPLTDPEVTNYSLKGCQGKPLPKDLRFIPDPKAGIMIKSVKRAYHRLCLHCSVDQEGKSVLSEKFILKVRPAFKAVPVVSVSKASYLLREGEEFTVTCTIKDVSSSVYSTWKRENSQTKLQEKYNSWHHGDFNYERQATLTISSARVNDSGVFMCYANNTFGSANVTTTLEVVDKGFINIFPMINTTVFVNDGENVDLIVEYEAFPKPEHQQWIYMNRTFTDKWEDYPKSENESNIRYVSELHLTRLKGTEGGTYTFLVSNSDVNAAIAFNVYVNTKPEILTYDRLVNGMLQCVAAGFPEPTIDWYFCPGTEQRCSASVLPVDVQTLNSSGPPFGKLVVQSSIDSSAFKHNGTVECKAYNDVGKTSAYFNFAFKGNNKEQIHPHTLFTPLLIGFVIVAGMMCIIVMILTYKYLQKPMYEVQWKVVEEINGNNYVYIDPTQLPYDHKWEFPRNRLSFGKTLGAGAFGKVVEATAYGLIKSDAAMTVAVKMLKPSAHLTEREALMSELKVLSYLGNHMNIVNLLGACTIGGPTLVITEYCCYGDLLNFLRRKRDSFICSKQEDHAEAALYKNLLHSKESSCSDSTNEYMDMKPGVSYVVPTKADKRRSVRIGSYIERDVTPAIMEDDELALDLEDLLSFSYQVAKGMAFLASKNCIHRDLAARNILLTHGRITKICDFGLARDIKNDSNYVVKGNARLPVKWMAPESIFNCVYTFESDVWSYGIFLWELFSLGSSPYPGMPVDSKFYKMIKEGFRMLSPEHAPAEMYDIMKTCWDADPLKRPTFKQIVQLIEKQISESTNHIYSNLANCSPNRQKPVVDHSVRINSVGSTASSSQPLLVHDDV", "assay": "FACS cell binding, Expi293 transiently expressing CD117", "description": "(§1) The transient expression of CD117 was validated with a control antibody, Expi293 (FIGS. 17A-17B). Expi293, […], was transiently transfected with CD117 48-hours post-transfection. The secondary antibody used was APC Goat anti-human IgG (diluted 1:400). 100,000 cells per well were blocked with 1×PBS+0.5% BSA for 1 hour, stained with 100 μL of the primary antibody for 1 hour, and stained with the secondary antibody for one hour, all with 3× washes in between each staining.", "units": {"EC50": "pM"}, "values": [{"binder": "B1", "EC50": 351000}, {"binder": "B2", "EC50": 3420}]}, {"molecular_target": "T2, mouse CD117 (mouse, UniProt P05532)", "T2 construct": "antigen of the Carterra SPR kinetics; also called murine CD117", "T2 sequence (receptor, looked up)": "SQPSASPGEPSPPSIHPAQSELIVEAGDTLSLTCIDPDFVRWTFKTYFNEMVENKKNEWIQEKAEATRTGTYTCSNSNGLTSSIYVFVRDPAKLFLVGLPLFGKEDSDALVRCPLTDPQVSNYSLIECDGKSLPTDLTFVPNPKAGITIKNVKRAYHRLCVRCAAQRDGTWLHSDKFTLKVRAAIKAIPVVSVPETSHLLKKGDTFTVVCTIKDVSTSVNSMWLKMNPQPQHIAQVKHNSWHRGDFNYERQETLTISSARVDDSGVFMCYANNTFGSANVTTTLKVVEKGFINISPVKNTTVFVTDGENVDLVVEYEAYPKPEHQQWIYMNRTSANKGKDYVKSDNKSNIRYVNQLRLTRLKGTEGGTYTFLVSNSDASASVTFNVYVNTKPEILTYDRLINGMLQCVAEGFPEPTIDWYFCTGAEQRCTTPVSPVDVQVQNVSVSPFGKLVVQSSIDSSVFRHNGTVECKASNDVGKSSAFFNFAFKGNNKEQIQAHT", "assay": "Carterra SPR, mouse CD117", "description": "(§2) To further evaluate the antibodies discovered during the screens, 21 clones were selected for detailed characterization and were analyzed for target binding kinetics by a Carterra SPR instrument. The binding kinetics of the anti-CD117 antibodies for human CD117, cynomolgus monkey CD117, and murine CD117 are shown in FIG. 29A-29B.", "values": [{"binder": "B3", "binding result": "no binding"}, {"binder": "B4", "binding result": "no binding"}]}, {"molecular_target": "T3, Cluster of differentiation 117 (CD117), antigen of epitope binning and ELISA (UniProt P10721 26-520, limits assumed)", "T3 construct": "also called tyrosine-protein kinase KIT; mast/stem cell growth factor receptor (SCFR)", "T3 sequence (P10721 26-520 limits assumed)": "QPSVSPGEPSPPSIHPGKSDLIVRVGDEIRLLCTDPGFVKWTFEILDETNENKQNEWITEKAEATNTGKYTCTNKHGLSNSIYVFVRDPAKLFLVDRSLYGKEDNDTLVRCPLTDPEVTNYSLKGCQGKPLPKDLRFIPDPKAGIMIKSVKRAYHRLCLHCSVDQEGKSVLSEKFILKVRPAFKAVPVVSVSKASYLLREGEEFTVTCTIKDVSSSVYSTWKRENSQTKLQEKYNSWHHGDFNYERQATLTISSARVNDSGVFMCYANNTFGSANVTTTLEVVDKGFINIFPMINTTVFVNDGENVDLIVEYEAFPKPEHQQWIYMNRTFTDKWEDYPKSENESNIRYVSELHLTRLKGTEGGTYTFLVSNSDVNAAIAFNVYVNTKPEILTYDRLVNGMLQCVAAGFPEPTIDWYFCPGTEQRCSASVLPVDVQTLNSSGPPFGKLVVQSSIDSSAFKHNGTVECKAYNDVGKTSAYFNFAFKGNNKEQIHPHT", "assay": "Carterra SPR, human CD117", "description": "as §2", "values": [{"binder": "B1", "binding result": "no binding"}, {"binder": "B2", "binding result": "no binding"}]}, {"molecular_target": "T1, CD117 transiently expressed on Expi293 …", "assay": "FACS, MFI expressing / parental cells", "description": "as §1", "values": [{"binder": "B1", "MFI Ratio": 4.25}, {"binder": "B2", "MFI Ratio": 10.5}]}, {"molecular_target": "T4, Sialic acid-binding immunoglobulin-like lectin 8 (SIGLEC-8), antigen of the Carterra SPR studies (UniProt Q9NYZ4 17-363, limits assumed)", "T4 sequence (Q9NYZ4 17-363 limits assumed)": "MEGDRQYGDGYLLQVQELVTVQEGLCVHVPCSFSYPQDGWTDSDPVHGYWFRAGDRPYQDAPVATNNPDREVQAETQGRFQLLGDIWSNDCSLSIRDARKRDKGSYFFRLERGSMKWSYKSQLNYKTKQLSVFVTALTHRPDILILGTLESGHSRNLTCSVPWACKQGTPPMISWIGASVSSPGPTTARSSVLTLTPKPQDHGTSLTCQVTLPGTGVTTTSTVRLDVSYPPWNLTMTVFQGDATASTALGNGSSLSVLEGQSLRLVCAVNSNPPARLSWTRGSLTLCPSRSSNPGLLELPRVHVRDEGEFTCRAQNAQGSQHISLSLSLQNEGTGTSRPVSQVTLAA", "assay": "Carterra SPR", "procedure,_shortened": "(§3)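 Antibodies came from synthetic antibody libraries, panned over four rounds with a bead-based strategy and screened by clonal ELISA. Chosen clones were expressed and purified before testing. Their binding kinetics to SIGLEC-8 were then measured by surface plasmon resonance on a Carterra instrument, giving rate constants and dissociation constants.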", "units": {"Kd": "pM"}, "values": [{"binder": "B5", "Kd": 189}, {"binder": "B6", "Kd": 31200}, {"binder": "B7", "Kd": 856}, {"binder": "B8", "Kd": 76.4}, {"binder": "B9", "Kd": 733}, {"binder": "B10", "Kd": 94.2}, {"binder": "B11", "Kd": 1610}, {"binder": "B12", "Kd": 370}, {"binder": "B13", "Kd": 185}, {"binder": "B14", "Kd": 574}, {"binder": "B15", "Kd": 895}]}, {"molecular_target": "T5, SIGLEC-8 transiently expressed on cells (UniProt Q9NYZ4 17-499, limits assumed)", "T5 construct": "whole, on cells; Two cassettes are described (P2A mVenus and direct mVenus fusion); also called the transient line; pTT5-SIGLEC-8 P2A mVenus", "T5 sequence (Q9NYZ4 17-499 limits assumed)": "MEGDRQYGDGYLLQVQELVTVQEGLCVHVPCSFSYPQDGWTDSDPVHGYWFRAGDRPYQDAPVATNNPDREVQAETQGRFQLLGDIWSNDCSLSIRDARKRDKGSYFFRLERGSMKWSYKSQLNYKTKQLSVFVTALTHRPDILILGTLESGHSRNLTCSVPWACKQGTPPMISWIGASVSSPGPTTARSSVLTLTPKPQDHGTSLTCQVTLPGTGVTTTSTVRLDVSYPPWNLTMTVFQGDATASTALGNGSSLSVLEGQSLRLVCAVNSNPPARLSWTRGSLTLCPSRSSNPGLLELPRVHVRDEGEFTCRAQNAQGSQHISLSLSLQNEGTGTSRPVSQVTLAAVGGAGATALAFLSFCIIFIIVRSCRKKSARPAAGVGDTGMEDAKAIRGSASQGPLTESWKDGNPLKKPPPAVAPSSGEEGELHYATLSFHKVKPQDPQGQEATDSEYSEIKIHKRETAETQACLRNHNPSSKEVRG", "assay": "cell binding titration, transient SIGLEC-8 line", "units": {"EC50": "pM"}, "values": [{"binder": "B5", "EC50": 2380}, {"binder": "B6", "EC50": 939}, {"binder": "B7", "EC50": 1500}, {"binder": "B8", "EC50": 972}, {"binder": "B9", "EC50": 4070}, {"binder": "B10", "EC50": 494}, {"binder": "B11", "EC50": 3010}, {"binder": "B12", "EC50": 1330}, {"binder": "B13", "EC50": 690}, {"binder": "B14", "EC50": 1810}, {"binder": "B15", "EC50": 653}]}, {"molecular_target": "T4, Sialic acid-binding immunoglobulin-like …", "assay": "Carterra SPR kinetics, summary table", "procedure,_shortened": "as §3", "units": {"koff": "s⁻¹", "kon": "M⁻¹ s⁻¹"}, "values": [{"binder": "B5", "koff": "3.12e-05", "kon": 165000}, {"binder": "B7", "koff": 0.000124, "kon": 145000}, {"binder": "B8", "koff": "3.4e-05", "kon": 445000}, {"binder": "B9", "koff": "6.22e-05", "kon": 84900}, {"binder": "B10", "koff": "3.67e-05", "kon": 390000}, {"binder": "B12", "koff": "5.63e-05", "kon": 152000}, {"binder": "B13", "koff": "4.78e-05", "kon": 259000}, {"binder": "B14", "koff": "8.37e-05", "kon": 146000}, {"binder": "B15", "koff": 0.000116, "kon": 129000}]}]}
